Like-named read-outs stand apart in the source and are kept apart here.
Key:
Experiment in all cases: pull-down
[1] = target: 6 × His-tagged FER–CD (Arabidopsis thaliana, UniProt Q9SCZ4 469-895)
[2] = target: T1, FER^K565R–CD–His (kinase dead form) (Arabidopsis thaliana, UniProt Q9SCZ4 469-895, K565R)
[3] = target: FER–CD (+ ATP) treated with CIP (Arabidopsis thaliana, UniProt Q9SCZ4 469-895)
[4] = target: T1, FER^K565R–CD–His (kinase dead form); remark: listed apart in the source

Chain of 6 × His-tagged FER–CD (Q9SCZ4 469-895): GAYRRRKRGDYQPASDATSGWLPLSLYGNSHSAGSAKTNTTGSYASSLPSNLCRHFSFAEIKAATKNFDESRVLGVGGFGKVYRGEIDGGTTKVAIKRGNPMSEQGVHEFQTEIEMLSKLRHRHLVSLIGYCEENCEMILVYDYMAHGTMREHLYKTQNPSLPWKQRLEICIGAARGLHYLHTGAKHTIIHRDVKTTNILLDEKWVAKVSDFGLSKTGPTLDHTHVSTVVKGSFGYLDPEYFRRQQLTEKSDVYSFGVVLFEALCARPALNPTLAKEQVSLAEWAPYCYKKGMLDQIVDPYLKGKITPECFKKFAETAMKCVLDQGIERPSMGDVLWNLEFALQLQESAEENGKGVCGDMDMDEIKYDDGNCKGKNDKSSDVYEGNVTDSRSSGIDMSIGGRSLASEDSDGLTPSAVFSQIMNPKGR
T1 sequence (Q9SCZ4 469-895 K565R): as the sequence (Q9SCZ4 469-895) above, with K97R counted along it
Chain of FER–CD (+ ATP) treated with CIP (Q9SCZ4 469-895): as the sequence (Q9SCZ4 469-895) above

Row | Binder | binding result [1] | binding result [2] | binding result [3] | binding result [4]
1 | GST–CAR5 (natural protein) MIVSFLYFSSLFPTSLRKINLVAGEKHKDRRMKPSLMDSLLGLLRIRIKRGVNLAVRDLNSSDPYVVVKMAKQKLKTRVIYKNVNPEWNEDLTLSVSDPNLTVLLTVYDYDTFTKDDKMGDAEFGIKPFVNALKMHLHDLPSGTIVTTVQPSRDNCLAEESRVIWSDGKLVQDIVLRLRHVECGEVEAQLQWIDLPGKGL | binds | – | – | –
2 | GST–CAR6 (natural protein) MEKTEEEVEMKELVGLVRILVKRGIDLARRDALSSDPFVVITMGPQKLKSFTVKNNCNPEWNEELTLAIEDPNEPVKLMVYDKDTFTADDKMGDAQIDMKPFLDVHKLGLKELPHGKELKRIVPTRDNCLSEDSIIVSDNGKIVQDMILLLKNVECGKVEIQLEWLKNPGGSGL | binds | – | – | –
3 | GST–CAR9 (natural protein) MEDKPLGILRVHVKRGINLAIRDATTSDPYVVITLANQKLKTRVINNNCNPVWNEQLTLSIKDVNDPIRLTVFDKDRFSGDDKMGDAEIDFRPFLEAHQMELDFQKLPNGCAIKRIRPGRTNCLAEESSITWSNGKIMQEMILRLKNVECGEVELMLEWTDGPGCKGLGREGSKKTPWMPTKRLD | binds | binds | – | –

Next, values leading:

Row | binding result [1] | binding result [2] | binding result [3] | binding result [4] | Binder
4 | binds | – | – | – | GST–CAR10 (natural protein) MDQKPLGLLTIHVKRGINLAIRDHRSSDPYIVLNVADQTLKTRVVKKNCNPVWNEEMTVAIKDPNVPIRLTVFDWDKFTGDDKMGDANIDIQPYLEALKMGMELLRLPNGCAIKRVQPSRHNCLSDESSIVWNNGKITQDLILRLNNVECGEIEIMLEWHEGAGCRGITSSSKGGGSSST
5 | – | – | binds | binds | GST–CAR9^3M (natural protein) MEDKPLGILRVHVKRGINLAIRDATAADPFVVITLANQKLKTRVINNNCNPVWNEQLTLSIKDVNDPIRLTVFDKDRFSGDDKMGDAEIDFRPFLEAHQMELDFQKLPNGCAIKRIRPGRTNCLAEESSITWSNGKIMQEMILRLKNVECGEVELMLEWTDGPGCKGLGREGSKKTPWMPTKRLD
